Reference: US20200239573A1 (CRESCENDO BIOLOGICS, published 2020)
Changes are numbered by the printed parent chain. Where “and” joins values, the source holds several entries; their conditions need not be identical. Equal values may be shown once.

B1: Humabody® 1.58 (VHH)
VHH: QVQLVESGGGLVKPGGSLRLSCAASGFTFSDNTMTWMRQAPGKGLEWVSYISTGGGVKFYADSVKGRFTISRDNAKNSLYLQMNSLRADDTAVYYCAREAPLRLGESPHDAFDIWGQGTMVTVSS
notes: human VH single domain antibody
B2: Humabody® 1.44 (VHH)
VHH: B1 VHH with T33S, T53S, G56A
notes: as for B1
B3: Humabody® 1.89 (VHH)
VHH: B1 VHH with Q1E, N32Y, T33S, T53S, D89E, W115S
notes: as for B1
B4: Humabody® 1.59 (VHH)
VHH: B1 VHH with T33S, T35S, T53S, G56S
notes: as for B1
B5: Humabody® 1.51 (VHH)
VHH: B1 VHH with N32S, T33S, T53S, G56A, A61T
notes: as for B1
B6: Humabody® 1.43 (VHH)
VHH: B1 VHH with N32S, T33S, T53S, K58I
notes: as for B1
B7: Humabody® 1.42 (VHH)
VHH: B1 VHH with T33S, T53S
notes: as for B1
B8: Humabody® 1.3 (VHH)
VHH: B1 VHH with N32Y, G56S, V57I, F59Y, A61T
notes: as for B1
B9: Humabody® 1.14 (VHH)
VHH: B1 VHH with Q1E, K13Q, G16R, N32Y, G56T, V57I, F59Y, A61T
notes: as for B1
B10: Humabody® 1.6 (VHH)
VHH: B1 VHH with Q1E, V5L, N32Y, G56T, V57I, F59Y, A61T, N84S
notes: as for B1
B11: Humabody® 1.8 (VHH)
VHH: B1 VHH with Q1E, N32Y, G56S, V57I, F59Y, A61T, D89G
notes: as for B1
B12: Humabody® 1.11 (VHH)
VHH: EVQLLESGGGLVKPGGSLRLSCAASGFTFSDYDMTWIRQAPGKGQEWVSYISRGGSTKYYADSVKGRFTISRDNAKNSLYLQMNSLRAEDTAVYYCAREAPLRLGETPHDAFDIWGQGTMVTVSS
notes: as for B1
B13: Humabody® 1.7 (VHH)
VHH: B1 VHH with Q1E, N32Y, G56T, V57I, F59Y, A61T
notes: as for B1
B14: Humabody® 1.10 (VHH)
VHH: B1 VHH with N32Y, T35S, V48I, T53L, G56N, V57T, F59Y, A61T
notes: as for B1
B15: Humabody® 1.12 (VHH)
VHH: B12 VHH with L11V, D33Y, T35G, Q45L, V48I, R53S, G54S, K58I, T107S
notes: as for B1
B16: Humabody® 1.15 (VHH)
VHH: QVQLVESGGGLVKPGGSLRLSCAASGFTFSDNSMSWIRQAPGKGLEWVSYISSSGSTIYYADSVKGRFTISRDNAKNSLYLQMNTLRAEDTAVYYCAKEAPLRLGESPHDAFDIWGQGTMVTVSS
notes: as for B1

Biological target: T1, human PD-1 expressed on cells (CHO human PD-1 cells) (human, UniProt Q15116 21-288)
T1 sequence (Q15116 21-288): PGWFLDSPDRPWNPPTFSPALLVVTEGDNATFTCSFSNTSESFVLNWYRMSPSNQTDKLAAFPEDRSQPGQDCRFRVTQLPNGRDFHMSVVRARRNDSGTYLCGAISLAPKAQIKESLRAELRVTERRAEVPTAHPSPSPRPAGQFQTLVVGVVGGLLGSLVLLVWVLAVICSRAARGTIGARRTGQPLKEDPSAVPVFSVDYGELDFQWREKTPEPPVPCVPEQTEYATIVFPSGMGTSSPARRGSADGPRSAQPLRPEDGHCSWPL
Test: cell-based or functional assay

| Reporter Assay EC50 [nM] | Binder |
| --- | --- |
| 7.1 | B1 |
| 41 | B2 |
| 19 | B3 |
| 24 | B4 |
| 23 | B5 |
| 12 | B6 |
| 8.6 | B7 |

Biological target: T2, recombinant human PD-1 Fc chimera (human, UniProt Q15116 25-167)
T2 construct: Bought protein; also called human PD-1-huFc; huPD-1-Fc; not shown: human Fc
T2 sequence (Q15116 25-167 limits assumed, change not shown): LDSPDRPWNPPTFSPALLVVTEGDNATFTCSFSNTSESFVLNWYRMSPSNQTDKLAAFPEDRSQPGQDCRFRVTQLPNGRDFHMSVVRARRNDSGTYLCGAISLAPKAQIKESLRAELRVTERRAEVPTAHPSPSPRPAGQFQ
Test: HTRF inhibition; strep-tagged PD-L1 vs PD-1-Fc
Protocol: All samples and reagents were prepared in HTRF assay buffer containing PBS, 0.1% (w/v) BSA and 0.4M Potassium Fluoride. […] Total binding controls containing periplasmic extract sample buffer and non-specific binding controls containing excess untagged competitor were set up on each plate for data normalisation. Time-resolved fluorescent emission at 620 nm and 665 nm was measured following excitation at 337 nm on the BMG PHERAstar plate reader. Data was expressed as a % of the total binding control (% control) after subtraction of the background signal determined from the non-specific binding control wells.

| IC50 [nM] | Binder |
| --- | --- |
| 2.3 | B8 |
| 28.5 | B9 |
| 13.1 | B10 |
| 28.8 | B11 |
| 5.16 | B12 |
| 4.4 | B13 |
| 54.1 | B14 |
| 4.18 | B15 |
| 3.78 | B16 |

Biological target: T1, human PD-1 expressed on cells (CHO …)
Test: FMAT epitope competition on CHO human PD-1 cells; competitor 1 nM 1.1-Strep
Protocol: For the epitope competition assay reagents were prepared in FMAT assay buffer. […] Plates were incubated for a minimum of 1.5 hours at room temperature then fluorescence measured in the FL2 (502 nm-537 nm) and FL5 (677-800 nm) channels on the Mirrorball plate reader (TTP) following excitation at 488 nm and 640 nm. Data was expressed as a % of the total binding control (i.e. % control) after subtraction of the background signal determined from the non-specific binding control wells.

| IC50 [nM] | Binder |
| --- | --- |
| 4.6 | B1 |
| 1.9 | B2 |
| 2.4 | B3 |
| 7.8 | B4 |
| 4.7 | B5 |
| 1.3 | B6 |
| 3.5 | B7 |

Biological target: T2, recombinant human PD-1 Fc chimera
Test: SPR Biacore T200, PD-1-huFc amine-coupled, single cycle kinetics
Protocol: Binding kinetics of certain VH single domain antibodies binding to human PD-1-huFc were measured by surface plasmon resonance (SPR) technology using Biacore T200 instrument (GE Healthcare). Recombinant human PD-1-huFc was immobilized by standard amine coupling to CM5 sensorschip (GE Healthcare) using in range of 0.1-0.01 mg/ml solution of antigen in 10 mM sodium acetate at pH 5.5. For the reference flow cell, a blank immobilisation was carried out. Single cycle kinetics assays were used to study the interaction, a five point, three-fold dilution series of each Humabody® was made with a top concentration of 30 nM. The binding kinetics were followed by flowing the Humabody® over the chip surface in HBS EP+ buffer at a flow rate of 30 μl/min. The contact time for each of the association steps was 180 seconds and the dissociation step was varied between 1200-3600 seconds. The data was fitted to a 1:1 binding model after double reference subtraction using the Biacore T200 Evaluation software.

| Kd | koff | kon | Binder |
| --- | --- | --- | --- |
| 0.2 nM and 0.17 nM | 4.18e-05 s⁻¹ and 4e-05 s⁻¹ | 209000 M⁻¹ s⁻¹ and 235000 M⁻¹ s⁻¹ | B2 |
| 0.317 nM | 5.98e-05 s⁻¹ | 189000 M⁻¹ s⁻¹ | B5 |
| 0.0681 nM | 2.79e-05 s⁻¹ | 410000 M⁻¹ s⁻¹ | B6 |
| 0.0505 nM | 2.69e-05 s⁻¹ | 532000 M⁻¹ s⁻¹ | B7 |

Biological target: T3, Strep tagged recombinant human PD-1 (human, UniProt Q15116 25-170, limits assumed)
T3 construct: the whole entry is named; also called strep tagged human PD-1; not shown: Strep tag
T3 sequence (Q15116 25-170 limits assumed): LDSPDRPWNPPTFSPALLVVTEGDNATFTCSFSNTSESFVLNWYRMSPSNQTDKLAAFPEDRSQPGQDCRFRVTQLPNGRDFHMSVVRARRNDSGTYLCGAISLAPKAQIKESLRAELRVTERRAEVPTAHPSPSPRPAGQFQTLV
Test: SPR Biacore T200, strep-tagged PD-1 amine-coupled, single cycle kinetics
Protocol: Single cycle kinetics assays were used to study the interaction between human PD-1 with Humabody® on a Biacore T200 instrument (GE Healthcare). Strep tagged recombinant human PD-1 was amine coupled to one flow cell of a CM-5 chip to create a low density surface (14 RU) using standard Biacore reagents. For the reference flow cell, a blank immobilisation was carried out. A five-point, three-fold dilution series of each Humabody® was made with a top concentration of 25 nM. The binding kinetics were followed by flowing the Humabody® over the chip surface in HBS EP+ buffer at a flow rate of 30 μl/min. The contact time for each of the association steps was 180 seconds and the dissociation step was 3300 seconds. The data was fitted to a 1:1 binding model after double reference subtraction using the Biacore T200 Evaluation software.

| Kd [nM] | koff [s⁻¹] | kon [M⁻¹ s⁻¹] | Binder |
| --- | --- | --- | --- |
| 0.0342 | 5.6e-05 | 1.6e+06 | B3 |
